The results in this text go back to patent US20180237527A1 (METIS PRECISION MEDICINE SB S R L, published 2018).

Sequences and labels used below:
B1: DCD-MvDN30.2 (Dual Constant Domain Fab with the duplicated constant domains swapped reciprocally) (Fab)
heavy: QVQLQQPGTELVKPGASVKLSCKASGYTFTSYWIHWVKQRPGQGLEWIGEINPSSGRTNYNEKFKNKVTVTVDKSSTTAYMQLSNLTSEDSAVYYCASRGYWGQGTTLTVSSASTKGPSVFPLAPSSKSTSGGTAALGCLVKDYFPEPVTVSWNSGALTSGVHTFPAVLQSSGLYSLSSVVTVPSSSLGTQTYICNVNHKPSNTKVDKKVEPKSCTVAAPSVFIFPPSDEQLKSGTASVVCLLNNFYPREAKVQWKVDNALQSGNSQESVTEQDSKDSTYSLSSTLTLSKADYEKHKVYACEVTHQGLSSPVTKSFNRGEC
light: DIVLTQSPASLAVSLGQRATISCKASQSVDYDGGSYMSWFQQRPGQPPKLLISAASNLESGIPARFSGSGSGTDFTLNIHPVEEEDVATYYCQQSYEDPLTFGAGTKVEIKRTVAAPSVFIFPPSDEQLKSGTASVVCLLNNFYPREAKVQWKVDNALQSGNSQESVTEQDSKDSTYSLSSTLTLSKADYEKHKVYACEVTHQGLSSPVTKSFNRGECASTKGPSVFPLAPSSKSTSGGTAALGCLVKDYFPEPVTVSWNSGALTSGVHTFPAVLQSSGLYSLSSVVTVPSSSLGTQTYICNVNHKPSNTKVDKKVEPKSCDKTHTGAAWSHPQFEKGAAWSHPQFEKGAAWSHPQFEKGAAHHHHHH
notes: also called DCD-Fab
B2: chimerized DN30 Fab (MvDN30) (Fab)
heavy: QVQLQQPGTELVKPGASVKLSCKASGYTFTSYWIHWVKQRPGQGLEWIGEINPSSGRTNYNEKFKNKVTVTVDKSSTTAYMQLSNLTSEDSAVYYCASRGYWGQGTTLTVSSASTKGPSVFPLAPSSKSTSGGTAALGCLVKDYFPEPVTVSWNSGALTSGVHTFPAVLQSSGLYSLSSVVTVPSSSLGTQTYICNVNHKPSNTKVDKKVEPKSC
light: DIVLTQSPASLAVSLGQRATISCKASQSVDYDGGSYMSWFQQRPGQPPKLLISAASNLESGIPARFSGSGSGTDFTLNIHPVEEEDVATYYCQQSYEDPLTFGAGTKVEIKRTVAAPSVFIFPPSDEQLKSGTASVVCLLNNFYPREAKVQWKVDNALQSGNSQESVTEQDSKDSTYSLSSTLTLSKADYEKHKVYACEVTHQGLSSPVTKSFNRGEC
notes: also called chimeric MvDN30; chimeric DN30 Fab
B3: DCD-MvDN30.1 (Dual Constant Domain Fab with the duplicated constant domains in tandem) (Fab)
heavy: QVQLQQPGTELVKPGASVKLSCKASGYTFTSYWIHWVKQRPGQGLEWIGEINPSSGRTNYNEKFKNKVTVTVDKSSTTAYMQLSNLTSEDSAVYYCASRGYWGQGTTLTVSSASTKGPSVFPLAPSSKSTSGGTAALGCLVKDYFPEPVTVSWNSGALTSGVHTFPAVLQSSGLYSLSSVVTVPSSSLGTQTYICNVNHKPSNTKVDKKVEPKSCASTKGPSVFPLAPSSKSTSGGTAALGCLVKDYFPEPVTVSWNSGALTSGVHTFPAVLQSSGLYSLSSVVTVPSSSLGTQTYICNVNHKPSNTKVDKKVEPKSCDKTHTGAAWSHPQFEKGAAWSHPQFEKGAAWSHPQFEKGAAHHHHHH
light: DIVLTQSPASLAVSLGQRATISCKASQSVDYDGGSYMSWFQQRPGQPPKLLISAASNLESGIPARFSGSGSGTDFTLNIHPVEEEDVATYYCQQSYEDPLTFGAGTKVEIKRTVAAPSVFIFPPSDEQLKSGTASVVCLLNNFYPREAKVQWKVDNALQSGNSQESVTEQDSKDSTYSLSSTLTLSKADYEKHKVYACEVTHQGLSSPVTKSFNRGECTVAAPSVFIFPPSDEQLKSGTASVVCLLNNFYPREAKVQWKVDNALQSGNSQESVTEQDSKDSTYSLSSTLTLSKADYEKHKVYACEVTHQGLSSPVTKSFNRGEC
notes: also called DCD-Fab

For the test, the target named is T1, Met-Fc chimera (human, UniProt P08581 25-932).
T1 construct: extracellular domain;domain: Fc domain; Bought from R&D Systems; also called Fc-Met; Met ectodomain; not shown: Fc domain derived from a human IgG
T1 sequence (P08581 25-932, change not shown): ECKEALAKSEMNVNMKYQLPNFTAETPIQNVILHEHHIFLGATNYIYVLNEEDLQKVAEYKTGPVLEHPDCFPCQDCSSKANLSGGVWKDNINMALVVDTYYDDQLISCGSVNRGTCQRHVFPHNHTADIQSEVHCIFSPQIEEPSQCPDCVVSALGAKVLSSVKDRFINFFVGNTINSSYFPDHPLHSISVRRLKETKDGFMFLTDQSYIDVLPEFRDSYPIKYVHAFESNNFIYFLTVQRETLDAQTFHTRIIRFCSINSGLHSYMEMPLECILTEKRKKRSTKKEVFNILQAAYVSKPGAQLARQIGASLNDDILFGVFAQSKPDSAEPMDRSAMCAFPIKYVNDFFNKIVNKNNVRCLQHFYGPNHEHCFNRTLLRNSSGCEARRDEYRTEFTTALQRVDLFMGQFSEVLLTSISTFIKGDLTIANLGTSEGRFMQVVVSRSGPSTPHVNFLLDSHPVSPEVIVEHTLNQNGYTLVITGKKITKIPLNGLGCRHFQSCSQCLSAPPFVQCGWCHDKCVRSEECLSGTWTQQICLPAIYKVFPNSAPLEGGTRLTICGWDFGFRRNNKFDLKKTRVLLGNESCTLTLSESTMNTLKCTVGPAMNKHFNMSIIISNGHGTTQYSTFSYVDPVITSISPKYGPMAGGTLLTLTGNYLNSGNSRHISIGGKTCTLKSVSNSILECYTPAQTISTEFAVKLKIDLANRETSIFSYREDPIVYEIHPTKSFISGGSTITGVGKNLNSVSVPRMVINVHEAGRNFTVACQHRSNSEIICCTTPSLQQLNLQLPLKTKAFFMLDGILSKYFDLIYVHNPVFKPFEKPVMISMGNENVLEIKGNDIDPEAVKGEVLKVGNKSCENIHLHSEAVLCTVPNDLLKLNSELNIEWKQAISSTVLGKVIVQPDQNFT
In words: ELISA, Met-Fc chimera in solid phase, antibody fragment in liquid phase, anti-strepTAG detection. On the procedure: Purified DCD-MvDN30.1 and DCD-MvDN30.2 were characterized for their ability to bind the Met receptor. To this end, the present inventors performed ELISA assays using Met ectodomain in solid phase and MvDN30, DCD-MvDN30.1 and DCD-MvDN30.2 in liquid phase.
[…] […] Data were analyzed and fit using Prism software (Graph Pad Software, San Diego, Calif.). Met-Fc chimera is a fusion protein wherein the Fc domain derived from a human IgG is fused in frame with the Met extracellular portion.
In general terms: In an ELISA, binding on a coated surface is turned into a signal by an enzyme label.
In the case of B1, the Kd (as a rule, the constant that tells how readily two partners part at equilibrium) was determined as 0.13 nM.

The molecule B2 had a Kd of 0.141 nM.

B3 registered a Kd of 0.133 nM.
